Measured values: article PMC5436742, “Structural models of the different trimers present in the core of phycobilisomes from Gracilaria chilensis based on crystal structures and sequences” (PLoS ONE, 2017)

Target: the molecule itself
Assay: SEC; 50 μL of 1 mg/mL purified APC on Superdex200 HR/30, 5 mM phosphate buffer pH7, 0.5 ml/min, calibrated with BioRad standards, elution followed at 651 and 280 nm

B1: Allophycocyanin αβ heterodimer from Gracilaria chilensis (complex)
chain 1: MSIITKSIVNADAEARYLSPGELDRIKSFVLSGQRRLRIAQILTDNRELIVKQGGQQLFQKRPDVVSPGGNAYGEEMTATCLRDLDYYLRLVTYGIVAGDVTPIEEIGLVGVKEMYNSLGTPISGVAEGVRSMKNVACSLLAGEDSAEAGFYFDYTLGAMQ
chain 2: MQDAITSVINAADVQGRYLDDNSLDKLRGYFQTGELRVRASATIAANAATIIKDSVAKALLYSDITRPGGNMYTTRRYAACIRDLDYYLRYATYGMLAGDPSILDERVLNGLKETYNSLGVPIGATIQAVQAMKEVTSSLVGPDAGKEMGVYFDYICSGLS
modifications: phycocyanobilin bound to cysteine 81 | phycocyanobilin bound to cysteine 81; methyl-Asn71 (Asm71)
notes: Allophycocyanin α subunit (gene apcA), Gracilaria chilensis; 161 residues; as the chain of m1; Allophycocyanin β subunit (gene apcB), Gracilaria chilensis; as the chain of m2; The αβ heterodimer is the unit that associates with itself into the trimer (αβ)3; also called APC; heterodimer αβ; source: purified from Gracilaria chilensis (method in S4 File)
  stoichiometry N: 3
